Assays:
[1] = system: 10-mer (SEQ ID NO:13) cleavage domain peptide
[2] = system: 19-mer (SEQ ID NO:11) cleavage domain peptide
[3] = system: 9-mer (SEQ ID NO:12) cleavage domain peptide

Sequence of Active MMP-9 enzyme (chain, as listed by the source): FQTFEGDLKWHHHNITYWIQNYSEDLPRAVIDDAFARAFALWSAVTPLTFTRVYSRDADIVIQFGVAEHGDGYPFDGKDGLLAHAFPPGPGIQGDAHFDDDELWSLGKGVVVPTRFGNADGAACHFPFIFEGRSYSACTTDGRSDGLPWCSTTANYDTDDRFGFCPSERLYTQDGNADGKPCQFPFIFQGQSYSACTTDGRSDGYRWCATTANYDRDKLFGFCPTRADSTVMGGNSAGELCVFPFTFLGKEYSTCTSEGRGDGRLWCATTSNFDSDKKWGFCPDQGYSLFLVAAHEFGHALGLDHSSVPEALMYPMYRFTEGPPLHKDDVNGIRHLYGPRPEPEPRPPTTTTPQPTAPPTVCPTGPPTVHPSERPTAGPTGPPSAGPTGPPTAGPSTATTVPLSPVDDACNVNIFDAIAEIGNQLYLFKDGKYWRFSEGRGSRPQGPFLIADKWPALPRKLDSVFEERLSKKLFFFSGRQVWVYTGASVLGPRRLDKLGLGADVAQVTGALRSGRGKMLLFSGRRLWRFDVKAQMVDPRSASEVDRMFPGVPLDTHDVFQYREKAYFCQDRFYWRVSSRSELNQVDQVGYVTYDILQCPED

Substance: Active MMP-9 enzyme
- extended time course of MMP-9 catalyzed hydrolysis of collagen [1]: The 10-mer (SEQ ID NO:13) peptide is less effective at preventing the destruction of collagen at long time points (FIG. 9) than is the 9-mer (SEQ ID NO:12) peptide (FIG. 10)
- extended time course of MMP-9 catalyzed hydrolysis of collagen [2]: the 19-mer (SEQ ID NO:11) effectively inhibits the MMP-9 catalyzed hydrolysis of collagen to beyond 1000 minutes
- extended time course of MMP-9 catalyzed hydrolysis of collagen [3]: The 10-mer (SEQ ID NO:13) peptide is less effective at preventing the destruction of collagen at long time points (FIG. 9) than is the 9-mer (SEQ ID NO:12) peptide (FIG. 10)
